# Measurements published in patent publication US7364737 (Scripps Research, dated 2008).
# B1: Fab clone 11 (Fab, V domains shown)
# VH: VKLLEQSGGGLVQPGGSLRLSCAVSGVTFSAYAMSWVRQAPGKGLEWVSGISGSGDSTDYADSVKGRLTISRDNSKNTLYLQMNSLRAEDTAIYYCASHLPDYWNLDYTRFFYYMDVWGKGTTVTVSS
# VL: ELTQSPGTLSLSPGERATLSCRATQSISSNYLAWYQQRPGQAPRLLIYGASNRATDIPDRFSGSGSGTDFTLTISRLEPEDFAMYYCQQYDISPYTFGQGTKLEIK
# notes: Human IgG1 kappa Fab from a pComb3 phage library, made as soluble Fab in E. coli; also called Fab 11; rsv 11H/11L
# B2: Fab clone 19 (Fab, V domains shown)
# VH: QVKLLEESGGGLVRLAGSLRLSCAASGTTLSGYTMHWVRQAPGKGLEWVSSITGGSNFINYSDSVKGRFTISRDNAKNSLYLQMNSLTAEDTAVYYCATAPIAPPYFDHWGQGTLVTVSS
# VL: ELTQSPSSLSASVGDRVTITCRATQSVSNFLNWYQQKPGEAPTLLIYDASTSQSGVPSRFSGSGSGMDFSLTISSLQPEDLAMYYCQASINTPLFGGGTRIDMR
# notes: Human IgG1 kappa Fab made as soluble Fab in E. coli; Variable domains are identical to clone 13; also called Fab 19; RSV Fab 19
# B3: Fab clone 13 (Fab, V domains shown)
# VH: B2 VH
# VL: B2 VL
# notes: Human IgG1 kappa Fab made as soluble Fab in E. coli; Variable domains are identical to clone 19; also called Fab 13; rsv 13H/13L
# Molecular target: RSV (subgroup A) F glycoprotein (respiratory syncytial virus subgroup A …, UniProt P03420 26-574)
# Assay: cell-based or functional assay
# RSV (subgroup A) F glycoprotein, sequence (P03420 26-574): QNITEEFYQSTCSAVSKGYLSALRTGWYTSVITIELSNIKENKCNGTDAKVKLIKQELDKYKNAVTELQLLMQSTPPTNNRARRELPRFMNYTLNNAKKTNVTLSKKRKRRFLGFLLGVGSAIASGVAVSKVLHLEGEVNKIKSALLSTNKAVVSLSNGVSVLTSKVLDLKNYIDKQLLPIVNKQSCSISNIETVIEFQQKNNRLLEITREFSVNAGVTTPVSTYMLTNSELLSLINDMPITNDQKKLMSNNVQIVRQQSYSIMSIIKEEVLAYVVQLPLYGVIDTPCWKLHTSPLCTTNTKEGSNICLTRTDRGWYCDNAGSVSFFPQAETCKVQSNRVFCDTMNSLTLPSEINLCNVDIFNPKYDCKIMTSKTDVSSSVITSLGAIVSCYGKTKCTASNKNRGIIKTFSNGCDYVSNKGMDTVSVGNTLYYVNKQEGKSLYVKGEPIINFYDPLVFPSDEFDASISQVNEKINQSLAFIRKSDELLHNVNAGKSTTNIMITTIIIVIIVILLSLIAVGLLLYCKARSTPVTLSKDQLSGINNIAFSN
Binder,"Concentration of Fab Needed for 60% Plaque Reduction (µg/ml), RSV; purified from lysate",Maximum Neutralization of RSV (Subgroup A); purified from lysate
B1,1.8 µg/mL,88%
B2,0.4 µg/mL,100%
B3,0.2 µg/mL,98%

# Molecular target: T1, baculovirus-expressed FG fusion glycoprotein (respiratory syncytial virus, UniProt P03420 26-489; P03423 97-279)
# T1 construct: also called RSV FG glycoprotein; recombinant FG glycoprotein
# Assay: inhibition ELISA, free FG against coated FG
# T1 sequence (P03420 26-489, tags or fused parts left off): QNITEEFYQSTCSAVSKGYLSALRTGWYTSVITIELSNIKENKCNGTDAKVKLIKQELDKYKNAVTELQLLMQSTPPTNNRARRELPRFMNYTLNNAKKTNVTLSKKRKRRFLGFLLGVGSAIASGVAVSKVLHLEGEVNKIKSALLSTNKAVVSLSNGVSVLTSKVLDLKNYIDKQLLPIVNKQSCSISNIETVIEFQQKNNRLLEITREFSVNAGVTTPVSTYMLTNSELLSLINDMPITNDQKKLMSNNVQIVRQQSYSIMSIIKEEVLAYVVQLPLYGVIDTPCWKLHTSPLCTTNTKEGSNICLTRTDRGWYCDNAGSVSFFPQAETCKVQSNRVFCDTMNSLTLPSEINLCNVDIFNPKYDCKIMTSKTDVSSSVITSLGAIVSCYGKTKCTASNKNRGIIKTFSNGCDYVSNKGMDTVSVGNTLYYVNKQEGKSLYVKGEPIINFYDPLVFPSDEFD
row,Binder,Ka
1,B1,~1e+08 M⁻¹
2,B2,~1e+08 M⁻¹
3,B3,~1e+08 M⁻¹
